These results are taken from patent US20230257722.

Assay in all cases: cell_activity
Data set [1] relates to TL4409 SMARCA4 left TALE-SEQ8 nuclease (synthetic). The conditions noted are these: A549, mRNA, pair with p8R; Table 10 70.4% cleavage.
In data set [2] the test system is TL4409 SMARCA4 left TALE-SEQ1 nuclease (synthetic). Particulars: A549, mRNA, pair with p1R; Table 10 59.7% cleavage.
Data set [3] deals with TL4409 SMARCA4 left TALE-SEQ6 nuclease (synthetic). Particulars: A549, mRNA, pair with p6R; Table 10 75.2% cleavage.
The test system of data set [4] is TL4409 SMARCA4 left TALE-SEQ7 nuclease (synthetic). The conditions noted are these: A549, mRNA, pair with p7R; no cleavage, binding not measured.
Data set [5] has as its system TL4409 SMARCA4 left TALE-SEQ2 nuclease (synthetic). Particulars: A549, mRNA, pair with p2R; Table 10 67.6% cleavage.
For data set [6], the system named is TL4409 SMARCA4 left TALE-SEQ5 nuclease (synthetic). The conditions noted are these: A549, mRNA, pair with p5R; no cleavage, binding not measured.
Data set [7] has as its system TL4409 SMARCA4 left TALE-FokI (synthetic). Particulars: A549, mRNA, pair with pFR.
The test system of data set [8] is TL4409 SMARCA4 left TALE-SEQ4 nuclease (synthetic). Particulars: A549, mRNA, pair with p4R; Table 10 94.5% cleavage.
Data set [9] relates to TL4412 SMARCA4 right TALE-SEQ8 nuclease (synthetic). Particulars: A549, mRNA, pair with p8L; Table 10 70.4% cleavage.
For data set [10], the system named is TL4412 SMARCA4 right TALE-FokI (synthetic). The conditions noted are these: A549, mRNA, pair with pFL.
In data set [11] the test system is TL4412 SMARCA4 right TALE-SEQ7 nuclease (synthetic). The conditions noted are these: A549, mRNA, pair with p7L; no cleavage, binding not measured.
Data set [12] has as its system TL4412 SMARCA4 right TALE-SEQ2 nuclease (synthetic). Particulars: A549, mRNA, pair with p2L; Table 10 67.6% cleavage.
Data set [13] has as its system TL4412 SMARCA4 right TALE-SEQ1 nuclease (synthetic). The conditions noted are these: A549, mRNA, pair with p1L; Table 10 59.7% cleavage.
The subject of data set [14] is TL4412 SMARCA4 right TALE-SEQ6 nuclease (synthetic). Particulars: A549, mRNA, pair with p6L; Table 10 75.2% cleavage.
In data set [15] the test system is TL4412 SMARCA4 right TALE-SEQ4 nuclease (synthetic). Particulars: A549, mRNA, pair with p4L; Table 10 94.5% cleavage.
The subject of data set [16] is TL4412 SMARCA4 right TALE-SEQ5 nuclease (synthetic). The conditions noted are these: A549, mRNA, pair with p5L; no cleavage, binding not measured.

Turning to “GGCGTGTCCCAGGCCCTTGC (double strand) [SMARCA4 left half-site]”, the activity in data set [1] is 38 % indels; in data set [2], 42 % indels; in data set [3], 1 % indels; in [4] it was 0 % indels; in data set [5], 8 % indels; in data set [6], 0 % indels. The activity in [7] was determined as 74 % indels; in [8] it was 87 % indels.
As to “ACTGAGAGAGTGGACAAGC (double strand) [SMARCA4 right half-site (top strand)]”, the activity in data set [9] is 38 % indels; in [10], 74 % indels; in [11], 0 % indels; in data set [12], 8 % indels; in data set [13], 42 % indels; in data set [14], 1 % indels. Also, the activity in data set [15] was 87 % indels; in data set [16], 0 % indels.
